Data reported in article PMC11012335.

What was measured:
Assay in all cases: EMSA
[1] = system: Hfq Q8A (Escherichia coli K-12 MG1655); conditions: EMSA: 20 mM Tris-HCl pH 7.6, 0.5 M NaCl, 1 mM EDTA, 1% glycerol, 20 min at 25 C, native PAGE in 0.5x TBE at 4 C
[2] = system: Hfq K56A/H57A (Escherichia coli K-12 MG1655); conditions: EMSA: 20 mM Tris-HCl pH 7.6, 0.5 M NaCl, 1 mM EDTA, 1% glycerol, 20 min at 25 C, native PAGE in 0.5x TBE at 4 C
[3] = system: Hfq H57A (Escherichia coli K-12 MG1655); conditions: EMSA: 20 mM Tris-HCl pH 7.6, 0.5 M NaCl, 1 mM EDTA, 1% glycerol, 20 min at 25 C, native PAGE in 0.5x TBE at 4 C
[4] = system: Hfq Y25D* (Escherichia coli K-12 MG1655); conditions: EMSA: 20 mM Tris-HCl pH 7.6, 0.5 M NaCl, 1 mM EDTA, 1% glycerol, 20 min at 25 C, native PAGE in 0.5x TBE at 4 C
[5] = system: Hfq K56A (Escherichia coli K-12 MG1655); conditions: EMSA: 20 mM Tris-HCl pH 7.6, 0.5 M NaCl, 1 mM EDTA, 1% glycerol, 20 min at 25 C, native PAGE in 0.5x TBE at 4 C
[6] = target: Hfq H57A H57A (Escherichia coli K-12 MG1655) (UniProt P0A6X3); conditions: EMSA: 20 mM Tris-HCl pH 7.6, 0.5 M NaCl, 1 mM EDTA, 1% glycerol, 20 min at 25 C; native PAGE in 0.5x TBE at 4 C
[7] = target: Hfq Q8A Q8A (Escherichia coli K-12 MG1655) (UniProt P0A6X3); conditions: EMSA: 20 mM Tris-HCl pH 7.6, 0.5 M NaCl, 1 mM EDTA, 1% glycerol, 20 min at 25 C; native PAGE in 0.5x TBE at 4 C
[8] = target: Hfq K56A/H57A K56A;H57A (Escherichia coli K-12 MG1655) (UniProt P0A6X3); conditions: EMSA: 20 mM Tris-HCl pH 7.6, 0.5 M NaCl, 1 mM EDTA, 1% glycerol, 20 min at 25 C; native PAGE in 0.5x TBE at 4 C
[9] = target: Hfq Y25D* Y25D (Escherichia coli K-12 MG1655) (UniProt P0A6X3); conditions: EMSA: 20 mM Tris-HCl pH 7.6, 0.5 M NaCl, 1 mM EDTA, 1% glycerol, 20 min at 25 C; native PAGE in 0.5x TBE at 4 C
[10] = target: Hfq K56A K56A (Escherichia coli K-12 MG1655) (UniProt P0A6X3); conditions: EMSA: 20 mM Tris-HCl pH 7.6, 0.5 M NaCl, 1 mM EDTA, 1% glycerol, 20 min at 25 C; native PAGE in 0.5x TBE at 4 C

DsrA
binding signal (% of WT Hfq binding) ([1]; 43/174 nM Hfq monomer): 46.9
binding signal (% of WT Hfq binding) ([2]; 43/174 nM Hfq monomer): 13.2
binding signal (% of WT Hfq binding) ([3]; 43/174 nM Hfq monomer): 66.5
binding signal (% of WT Hfq binding) ([4]; 43/174 nM Hfq monomer): 163
binding signal (% of WT Hfq binding) ([5]; 43/174 nM Hfq monomer): 24.4

GGGAACACAUCAGAUUUCCUGGUGUAACGAAUUUUUUAAGUGCUUCUUGCUUAAGCAAGUUUCAUCCCGACCCCCUCAGGGUCGGGAUUU [DsrA]
binding signal (% of WT Hfq binding) [6]: 66.5
binding signal (% of WT Hfq binding) [7]: 46.9
binding signal (% of WT Hfq binding) [8]: 13.2
binding signal (% of WT Hfq binding) [9]: 163
binding signal (% of WT Hfq binding) [10]: 24.4

RNA I FL
binding signal (% of WT Hfq binding) ([1]; 130/260 nM Hfq monomer): 86.5
binding signal (% of WT Hfq binding) ([2]; 130/260 nM Hfq monomer): 13.8
binding signal (% of WT Hfq binding) ([3]; 130/260 nM Hfq monomer): 72.7
binding signal (% of WT Hfq binding) ([4]; 130/260 nM Hfq monomer): 125
binding signal (% of WT Hfq binding) ([5]; 130/260 nM Hfq monomer): 36.1
